Test results published in US20230181639A1 (published 2023).

B1: E318 (TCR, V domains shown)
Valpha: GENVEQHPSTLSVQEGDSAVIKCTYSDSASNYFPWYKQELGKRPQLIIDIRSNVGEKKDQRIAVTLNKTAKHFSLHITETQPEDSAVYFCAASNRDDKIIFGKGTRLHILP
Vbeta: DAGVIQSPRHEVTEMGQEVTLRCKPISGHNSLFWYRQTMMRGLELLIYFNNNVPIDDSGMPEDRFSAKMPNASFSTLKIQPSEPRDSAVYFCASSLGAGHLWGYTFGSGTRLTVV
B2: E315 (TCR, V domains shown)
Valpha: KQEVTQIPAALSVPEGENLVLNCSFTDSAIYNLQWFRQDPGKGLTSLLLIQSSQREQTSGRLNASLDKSSGRSTLYIAASQPGDSATYLCAGKTSYDKVIFGPGTSLSVIP
Vbeta: EAGVAQSPRYKIIEKRQSVAFWCNPISGHATLYWYQQILGQGPKLLIQFQNNGVVDDSQLPKDRFSAERLKGVDSTLKIQPAKLEDSAVYLCASSVFPTSVEQYFGPGTRLTVT
B3: E149 (TCR, V domains shown)
Valpha: GIQVEQSPPDLILQEGANSTLRCNFSDSVNNLQWFHQNPWGQLINLFYIPSGTKQNGRLSATTVATERYSLLYISSSQTTDSGVYFCAVVDNNDMRFGAGTRLTVKP
Vbeta: DTEVTQTPKHLVMGMTNKKSLKCEQHMGHRAMYWYKQKAKKPPELMFVYSYEKLSINESVPSRFSPECPNSSLLNLHLHALQPEDSALYLCASSPGRWYEQFFGPGTRLTVL
B4: E316 (TCR, V domains shown)
Valpha: AQKITQTQPGMFVQEKEAVTLDCTYDTSDQSYGLFWYKQPSSGEMIFLIYQGSYDEQNATEGRYSLNFQKARKSANLVISASQLGDSAMYFCAMVSGAGGGADGLTFGKGTHLIIQP
Vbeta: DGGITQSPKYLFRKEGQNVTLSCEQNLNHDAMYWYRQDPGQGLRLIYYSQIVNDFQKGDIAEGYSVSREKKESFPLTVTSAQKNPTAFYLCASSIGVGLSNTEAFFGQGTRLTVV

Molecular target: T1, EBV latent membrane protein LMP2 (mutant-type epitope, LTK; as in SEQ ID NO: 28) peptide on HLA-A*11:01 (human)
T1 peptide: SSCSSCPLTK
Assay: multimer staining

Row | Binder | binding result
1 | B1 | recognises
2 | B2 | recognises
3 | B3 | recognises
4 | B4 | recognises

Molecular target: T2, EBV latent membrane protein LMP2 (wild-type epitope, LSK; as in SEQ ID NO: 27) peptide on HLA-A*11:01 (human)
T2 peptide: SSCSSCPLSK
Assay: multimer staining

Row | Binder | binding result
5 | B1 | recognises
6 | B2 | recognises
7 | B3 | recognises
8 | B4 | recognises
